Experiments:
[1] = biological target: casein
[2] = biological target: Azocoll
[3] = biological target: β-casein

- proteolytic activity (U/mg), casein as substrate [1]: 4290 U/mg
- hydrolysis of Azocoll, absorbance at 520 nm (% of original activity) [2]: 47
- percent of β-casein hydrolyzed, band intensity on SDS-PAGE [3]: 87 % hydrolyzed
Substance: protease Q (enzyme)
